Holding throughout (assay): IEDB peptide-MHC binding, purified MHC/competitive/radioactivity; filed as Kd, often an IC50 or EC50 that approximates it; ≥ and ≤ were set here for values at or beyond the usual limits of such assays
Test [1] addresses HLA-A*02:03.
The target in test [2] is HLA-A*02:02.
The target in test [3] is HLA-A*02:06.
In test [4] the target is HLA-A*11:01.
Test [5] deals with HLA-A*33:01.
Test [6] concerns the target HLA-A*31:01.
The target of test [7] is HLA-A*68:01.
Test [8] concerns the target HLA-A*03:01.
[9] abbreviates: source organism: Vaccinia virus WR.
Where [10] appears, read: source organism: SARS coronavirus Tor2.
Setting [11] is: source organism: Vaccinia virus Copenhagen.
Setting [12] is: source organism: Dengue virus 2 Jamaica/1409/1983.
The mark [13] stands for this setting: source organism: Mammarenavirus juninense.

pKd: −log10 of the molar value.

One may read the pKd as the negative decadic logarithm of the Kd, by convention in mol/L. In the case of FIQWTGGNI, the pKd is 7.26 in test [1] (setting [9]), 6.17 in test [2] (setting [9]) and 5.23 in test [3] (setting [9]).

SLGKSPLPSL: the negative logarithm of the Kd (pKd) in test [1] (setting [9]) was 7.33; in test [2] (setting [9]), 8.39; in test [3] (setting [9]) it was 5.84.

For IISSKQYPA, the negative-log Kd (pKd) is 6.21 in test [1] (setting [9]), 6.79 in test [2] (setting [9]) and 5.94 in test [3] (setting [9]).

As to IVNTTYDFLA, the negative logarithm of the Kd (pKd) was 5.08 in test [1] (setting [9]), 5.90 in test [2] (setting [9]) and 6.02 in test [3] (setting [9]).

As to ILDNLRCHSA, the pKd in test [1] (setting [9]) was 7.16; in test [2] (setting [9]), 6.01; in test [3] (setting [9]), 6.53.

For AMLKSKNINI, the results for the negative-log Kd (pKd) in test [1] (setting [9]), in test [2] (setting [9]) and in test [3] (setting [9]) were 6.65, 5.78 and 6.70, respectively.

Turning to DIKYDNKLL, the values for the pKd in test [1] (setting [9]), in test [2] (setting [9]) and in test [3] (setting [9]) were at most 4.30, 5.85 and at most 4.11, respectively.

Consider RAAIDRQVSV, for which the figures for the pKd in test [1] (setting [9]), in test [2] (setting [9]) and in test [3] (setting [9]) were 7.39, 6.20 and 6.67, respectively.

In the case of KASTISWMM, the results for the negative logarithm of the Kd (pKd) in test [1] (setting [9]), in test [2] (setting [9]) and in test [3] (setting [9]) were 6.25, 6.37 and 6.10, respectively.

Regarding MIYDLNAVTT, the figures for the negative logarithm of the Kd (pKd) in test [1] (setting [9]), in test [2] (setting [9]) and in test [3] (setting [9]) were 6.32, 6.05 and 6.37, respectively.

For the sequence YVVVHGYFT, the negative-log Kd (pKd) is 6.10 in test [1] (setting [10]), 6.47 in test [2] (setting [10]) and 6.77 in test [3] (setting [10]).

As for YTKHSMLTNA, the results for the negative logarithm of the Kd (pKd) in test [1] (setting [9]), in test [2] (setting [9]) and in test [3] (setting [9]) were 6.85, 5.41 and 5.13, respectively.

Take TLISSDGARV: the figures for the negative logarithm of the Kd (pKd) in test [1] (setting [9]), in test [2] (setting [9]) and in test [3] (setting [9]) were 6.88, 6.85 and 5.91, respectively.

In the case of ETMYLTMKA, the pKd in test [1] (setting [9]) was 6.03; in test [2] (setting [9]) it was 5.11; in test [3] (setting [9]), 4.90.

As to MICCDSRIVV, the negative-log Kd (pKd) in test [1] (setting [9]) is 6.41; in test [2] (setting [9]), 6.18; in test [3] (setting [9]), 7.28.

Take VTLFIDRGSI: the figures for the negative-log Kd (pKd) in test [1] (setting [9]), in test [2] (setting [9]) and in test [3] (setting [9]) were 5.65, 5.42 and 5.52, respectively.

On to NACDKHNKT, for which the pKd in test [1] (setting [9]) was 5.03; in test [2] (setting [9]) it was 4.75; in test [3] (setting [9]), 4.73.

In the case of ILSCIFAFI, the negative-log Kd (pKd) in test [1] (setting [11]) was 8.51; in test [2] (setting [11]) it was 9.10; in test [3] (setting [11]) it was 8.05.

With PLIISTDQDT, the pKd in test [1] (setting [9]) was at most 4.45; in test [2] (setting [9]), at most 4.35; in test [3] (setting [9]), at most 4.32.

On to YIAGLKIEEI, for which the pKd in test [1] (setting [9]) was 8.28; in test [2] (setting [9]), 8.05; in test [3] (setting [9]), 6.87.

As for FVDTMSIYIA, the pKd in test [1] (setting [9]) is 5.62; in test [2] (setting [9]), 6.81; in test [3] (setting [9]), 5.96.

Regarding ITYKCPLLR, the negative-log Kd (pKd) in test [4] (setting [12]) was 7.19; in test [5] (setting [12]), 6.70; in test [6] (setting [12]) it was 7.94; in test [7] (setting [12]), 7.23; in test [8] (setting [12]) it was 7.79.

HIKTIAVSVY: the negative-log Kd (pKd) is 5.08 in test [4] (setting [9]); 4.86 in test [5] (setting [9]); 6.04 in test [6] (setting [9]); 5.24 in test [7] (setting [9]); 6.59 in test [8] (setting [9]).

Regarding TMLFTMLRK, the negative logarithm of the Kd (pKd) in test [4] (setting [10]) was 7.70; in test [5] (setting [10]), 4.88; in test [6] (setting [10]) it was 6.05; in test [7] (setting [10]), 5.80; in test [8] (setting [10]) it was 8.13.

Take LMAYANQIHH: the pKd was 5.01 in test [4] (setting [13]); at most 4.27 in test [5] (setting [13]); at most 4.61 in test [6] (setting [13]); at most 4.62 in test [7] (setting [13]); 6.28 in test [8] (setting [13]).

Take YTKFWYVNH: the pKd in test [4] (setting [13]) is 4.75; in test [5] (setting [13]), 7.55; in test [6] (setting [13]) it was 6.22; in test [7] (setting [13]), 5.19; in test [8] (setting [13]), 4.99.

As for IASKINNNR, the pKd in test [4] (setting [9]) is 6.48; in test [5] (setting [9]), 7.12; in test [6] (setting [9]), 7.54; in test [7] (setting [9]), 8.73; in test [8] (setting [9]) it was 4.88.

Regarding YFSKQTQTY, the pKd in test [4] (setting [9]) was at most 4.56; in test [5] (setting [9]), at most 4.52; in test [6] (setting [9]), at most 4.60; in test [7] (setting [9]) it was 5.76; in test [8] (setting [9]), 4.76.

On to ALGGSIAVK, for which the negative-log Kd (pKd) in test [4] (setting [10]) was 6.77; in test [5] (setting [10]), at most 4.11; in test [6] (setting [10]), 4.90; in test [7] (setting [10]), 4.95; in test [8] (setting [10]), 7.82.

SLELIIIHTK: the pKd is 5.89 in test [4] (setting [9]); at most 4.27 in test [5] (setting [9]); 6.89 in test [6] (setting [9]); 5.09 in test [7] (setting [9]); 4.79 in test [8] (setting [9]).

For the origin of these results see the Immune Epitope Database (IEDB).
